How the values were obtained:
Arabidopsis [1] = assay: dgt-28, dgt-32, dgt-33, dgt-3, dgt-7 transformed Arabidopsis (T1, T2, T3) response to postemergence glyphosate, % visual injury; type: in vivo, Arabidopsis thaliana; conditions: 14 days after application
In short: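 Transgenic T1, T2 and T3 Arabidopsis (low-copy events for T2/T3, hemizygous and homozygous in T2) sprayed postemergence with glyphosate at 105, 420, 1,680 or 3,360 g ae/ha. Visual injury scored 2 weeks after treatment as mean, SD and range. Non-transformed Columbia served as sensitive control.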

Arabidopsis [2] = assay: Heritability progeny test of T1 families (T2 plants) with glufosinate, Arabidopsis; type: in vivo, Arabidopsis thaliana; conditions: progeny test of 100 T2 plants, glufosinate 200 g ae/ha
In short: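 Self-pollinated T1 Arabidopsis events gave T2 seed; 100 random T2 siblings were sprayed with glufosinate at 200 g ae/ha and scored resistant/sensitive, segregation tested by Chi square against 3:1.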

[3] = Table 8, T1 Arabidopsis, 105 g ae/ha glyphosate
[4] = Table 8, T1 Arabidopsis, 420 g ae/ha glyphosate
[5] = Table 8, T1 Arabidopsis, 1680 g ae/ha glyphosate
[6] = Table 8, T1 Arabidopsis, 3360 g ae/ha glyphosate
[7] = Table 10, T1 Arabidopsis, 1,680 g ae/ha glyphosate
[8] = Table 12, T2 Arabidopsis, 1 copy, 420 g ae/ha glyphosate
[9] = Table 12, T2 Arabidopsis, 1 copy, 840 g ae/ha glyphosate
[10] = Table 12, T2 Arabidopsis, 1 copy, 1680 g ae/ha glyphosate
[11] = Table 12, T2 Arabidopsis, 1 copy, 3360 g ae/ha glyphosate

B1: pDAB105533: TraP12 v2 -- dgt-28 v5: binary construct TraP12 v2: dgt-28 v5 (SEQ ID NO:36) (nucleic acid)
DNA: ATGGCACAATCTAGCAGAATCTGCCACGGTGTGCAGAACCCATGTGTGATCATTTCAAATCTCTCAAAGTCCAATCAGAACAAATCACCTTTCTCCGTCTCCCTCAAGACACACCAGCATCCAAGGGCATACCCGATAAGCAGCTCATGGGGACTCAAGAAGAGCGGAATGACTCTGATTGGCTCTGAGCTTCGTCCTCTTAAGGTTATGTCCTCTGTTTCCGCAGCAAGAGGGATGCCAGCCTTGTCTTTACCTGGATCAAAGAGTATCACAGCTAGGGCACTCTTTCTTGCTGCTGCTGCTGATGGGGTTACTACTTTGGTGAGGCCATTGAGAAGTGACGACACAGAAGGATTCGCTGAGGGGTTAGTTCGTTTAGGCTATCGTGTAGGGAGGACACCCGATACTTGGCAAGTCGATGGCAGACCACAAGGACCAGCAGTGGCTGAGGCTGACGTCTACTGTAGAGACGGAGCAACCACCGCTAGATTCTTGCCAACCTTAGCAGCTGCTGGTCACGGAACATACAGATTTGATGCTTCACCACAGATGAGGAGACGTCCTCTTTTGCCCTTAAGCAGAGCCTTGAGGGATTTGGGTGTCGATCTTAGACACGAAGAAGCTGAAGGTCATCACCCTCTGACTGTCCGTGCTGCTGGGGTTGAAGGAGGAGAGGTTACTTTGGATGCTGGTCAGTCAAGTCAGTATCTCACTGCCTTGTTGCTCCTTGGTCCCCTTACAAGACAAGGACTGAGGATAAGGGTTACTGATTTGGTGTCAGCACCATACGTGGAGATTACGCTTGCAATGATGAGGGCTTTCGGAGTTGAAGTGGCAAGGGAGGGAGATGTGTTCGTTGTTCCACCTGGTGGATATCGTGCAACTACGTATGCTATAGAACCCGACGCAAGTACTGCTTCTTACTTCTTCGCAGCTGCTGCTTTGACTCCTGGAGCTGAAGTGACTGTACCTGGGTTAGGCACGGGAGCACTTCAAGGAGATTTGGGATTTGTAGATGTCTTAAGGAGAATGGGAGCCGAGGTGTCCGTAGGAGCTGATGCAACCACTGTTAGAGGAACTGGTGAATTGCGTGGCCTTACAGCCAACATGAGAGACATAAGTGATACGATGCCGACCCTCGCTGCAATAGCACCCTTTGCTAGTGCTCCAGTTAGAATCGAGGATGTTGCCAACACTCGTGTCAAAGAATGTGACAGACTTGAGGCTTGTGCAGAGAACCTTAGGAGGTTGGGAGTAAGGGTTGCAACGGGTCCGGACTGGATTGAGATACACCCTGGTCCAGCTACTGGTGCTCAAGTCACAAGCTATGGTGATCACAGAATTGTGATGTCATTTGCAGTGACTGGACTTCGTGTGCCTGGGATCAGCTTCGACGACCCTGGCTGTGTTCGTAAGACTTTTCCTGGGTTTCACGAGGCTTTCGCAGAATTGAGGCGTGGCATTGGGAGCTGA
modifications: In-frame fusion of dgt-28 v5 and TraP12 v2
% Injury Ave (Arabidopsis [1]; [3]): 10.0%
% Injury Range (%) (Arabidopsis [1]; [3]): 0-25%
No. plants with 20-40% injury (Arabidopsis [1]; [3]): 1
No. plants with <20% injury (Arabidopsis [1]; [3]): 4
No. plants with >40% injury (Arabidopsis [1]; [3]): 0
% Injury Ave (Arabidopsis [1]; [4]): 53.6%
% Injury Range (%) (Arabidopsis [1]; [4]): 8-85%
No. plants with 20-40% injury (Arabidopsis [1]; [4]): 1
No. plants with <20% injury (Arabidopsis [1]; [4]): 1
No. plants with >40% injury (Arabidopsis [1]; [4]): 3
% Injury Ave (Arabidopsis [1]; [5]): 11.0%
% Injury Range (%) (Arabidopsis [1]; [5]): 0-20%
No. plants with 20-40% injury (Arabidopsis [1]; [5]): 1
No. plants with <20% injury (Arabidopsis [1]; [5]): 4
No. plants with >40% injury (Arabidopsis [1]; [5]): 0
% Injury Ave (Arabidopsis [1]; [6]): 55.0%
% Injury Range (%) (Arabidopsis [1]; [6]): 25-80%
No. plants with 20-40% injury (Arabidopsis [1]; [6]): 2
No. plants with <20% injury (Arabidopsis [1]; [6]): 0
No. plants with >40% injury (Arabidopsis [1]; [6]): 3
% Injury Ave (Arabidopsis [1]; [7]): 11.0%
% Injury Range (%) (Arabidopsis [1]; [7]): 0-20%
No. plants with 20-40% injury (Arabidopsis [1]; [7]): 1
No. plants with <20% injury (Arabidopsis [1]; [7]): 4
No. plants with >40% injury (Arabidopsis [1]; [7]): 0
% Injury Ave (Arabidopsis [1]; [8]): 0.0%
% Injury Range (%) (Arabidopsis [1]; [8]): 0%
No. plants with 20-40% injury (Arabidopsis [1]; [8]): 0
No. plants with <20% injury (Arabidopsis [1]; [8]): 4
No. plants with >40% injury (Arabidopsis [1]; [8]): 0
% Injury Ave (Arabidopsis [1]; [9]): 0.0%
% Injury Range (%) (Arabidopsis [1]; [9]): 0%
No. plants with 20-40% injury (Arabidopsis [1]; [9]): 0
No. plants with <20% injury (Arabidopsis [1]; [9]): 4
No. plants with >40% injury (Arabidopsis [1]; [9]): 0
% Injury Ave (Arabidopsis [1]; [10]): 0.0%
% Injury Range (%) (Arabidopsis [1]; [10]): 0%
No. plants with 20-40% injury (Arabidopsis [1]; [10]): 0
No. plants with <20% injury (Arabidopsis [1]; [10]): 4
No. plants with >40% injury (Arabidopsis [1]; [10]): 0
% Injury Ave (Arabidopsis [1]; [11]): 13.3%
% Injury Range (%) (Arabidopsis [1]; [11]): 8-25%
No. plants with 20-40% injury (Arabidopsis [1]; [11]): 1
No. plants with <20% injury (Arabidopsis [1]; [11]): 3
No. plants with >40% injury (Arabidopsis [1]; [11]): 0
T1 Families Tested Segregating at 1 Locus (%) (Arabidopsis [2]): 50%

Source: patent US9493781B2, “Synthetic brassica-derived chloroplast transit peptides” (DOW AGROSCIENCES LLC, priority 2012, dated 2016)
